From patent publication US20160208003A1 (AFFITECH RESEARCH, published 2016)
Substitutions are numbered along the chain they refer to.

B1: 9E10J IgG (full length human IgG1, lambda) (antibody, V domains shown)
VH: QVQLVQSGAEVKKPGSSVKVSCKASGGTFSSYAISWVRQAPGQGLEWMGGIIPIFGTANYAQKFQGRVTMTRDTSTSTVYMELSSLRSEDTAVYYCARRGGSYFDYWGQGTLVTVSS
VL: SYVLTQPPSASGTPGQSVTISCSGSTSNIGSHYVFWYQQLPGTAPRLLIYRNHQRPSGVPDRLSGSKSGTSASLAISGLRSEDEADYYCAVWDDTLSGWVFGGGTKLTVLG
notes: also called IgG 9E10J; unmodified 9E10J
B2: 9E IgG (full length human IgG1, lambda) (antibody, V domains shown)
VH: B1 VH with S31N, M70I, R72A, T74E, V79A
VL: B1 VL
notes: also called IgG 9E; IgG1 9E

Assays:
[1] = target: T1, human CC chemokine receptor 4 (CCR4) (human, UniProt P51679 1-360); experiment: flow cytometry competition on DT-40-CCR4+ cells; unlabelled IgG titrated, competitor 3.3 nM biotinylated IgG 9E
T1 construct: whole, on cells; Always presented on cells; also called CD194; human CCR4
T1 sequence (looked up): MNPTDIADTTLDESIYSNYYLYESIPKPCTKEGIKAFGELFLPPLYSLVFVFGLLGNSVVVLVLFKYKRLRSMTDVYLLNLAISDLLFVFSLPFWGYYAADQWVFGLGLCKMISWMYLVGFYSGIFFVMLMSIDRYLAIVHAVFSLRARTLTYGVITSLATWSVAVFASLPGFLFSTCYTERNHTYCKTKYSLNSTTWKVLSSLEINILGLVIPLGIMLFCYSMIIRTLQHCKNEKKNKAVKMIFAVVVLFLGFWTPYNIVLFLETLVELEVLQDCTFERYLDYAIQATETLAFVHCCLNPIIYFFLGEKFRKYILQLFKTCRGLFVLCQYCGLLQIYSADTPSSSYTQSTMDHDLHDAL
Procedure: (§1) Further competition experiments were carried out to assess whether or not the test antibodies recognise the same or overlapping epitopes, and to determine their relative affinities for CCR4. Antibodies 9E10J, 9E and KM3060var were tested using labelled 9E as a competitor.
(§2) DT40 and CCRF-CEM cells were cultivated as described in Example 2. The cells were harvested from culture flasks, washed 2 times with PBS (400×g, 5 min, 4° C.) and resuspended in PBS containing 0.2% BSA and 0.09% NaN3. 1×10^5 cells per well were aliquoted into V-shaped 96-well plates (Griner Bio-One, Frikenhausen, Germany). Cells were centrifuged (400×g, 5 min, 4° C.) and resuspended in 50 μl IgG 9E10J or KM3060var (dilution series starting at 5 μg/ml) mixed with biotinylated competitor antibody 9E (0.1 or 0.5 μg/ml). The cells were incubated for 2 hours at 4° C., mixing with a pipette every 45 min. The cells were washed three times with 150 μl PBS with 0.2% BSA and 0.09% NaN3 and stained with 3 μg/ml streptavidin PE (BD Biosciences) for 45 minutes at 4° C. Cells were washed, resuspended in 200 μl PBS with 0.2% BSA and 0.09% NaN3, and transferred to a U-shaped 96 well Costar (Corning, Schiphol-Rijik, The Netherlands) plate for flow cytometry using an FACS Canto II flow cytometer (BD Biosciences, Heidelberg, Germany).

[2] = target: T1, human CC chemokine receptor 4 (CCR4); experiment: calculated from the IC50; CCRF-CEM cells, competitor 0.7 nM biotinylated IgG 9E
Procedure: as §2

mouse CCR4 = target: T2, mouse CCR4 (mouse, UniProt P51680 1-360); experiment: flow cytometry on HEK-293T/17 cells transiently transfected with mouse CCR4, anti-human-IgG-PE detection
T2 construct: whole, on cells; also called murine CCR4
T2 sequence (looked up): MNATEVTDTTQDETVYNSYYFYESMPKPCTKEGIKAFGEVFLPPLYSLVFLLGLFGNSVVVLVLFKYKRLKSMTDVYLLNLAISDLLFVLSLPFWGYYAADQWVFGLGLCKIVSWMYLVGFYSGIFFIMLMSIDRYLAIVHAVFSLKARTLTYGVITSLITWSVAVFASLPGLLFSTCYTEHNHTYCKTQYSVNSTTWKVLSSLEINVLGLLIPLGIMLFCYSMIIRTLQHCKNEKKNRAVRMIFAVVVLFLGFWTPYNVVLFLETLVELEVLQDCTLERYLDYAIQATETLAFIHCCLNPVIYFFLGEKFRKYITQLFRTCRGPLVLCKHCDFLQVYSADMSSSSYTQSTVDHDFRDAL
Procedure: For transient transfection, Hek293T/17 cells were seeded as 2×10^6 cells in a T75 (NUNC) flask. 48 h after seeding, the cells were transfected with Fugene (ROCHE). 40 μl Fugene and 16 μg DNA are used per T75. The cells were used for assays 48 h after transfection.
HEK-293T/17 cells, were transiently transfected either with pcDNA3.1 plasmid encoding human CCR4 or with pLNO plasmids (Norderhaug et al, 1997) encoding either mouse (GeneBank CAA62372) or monkey (Macaca mulatta) CCR4 (PubMed access number XP_001098807) using Fugene (Roche) as a transfection reagent. Non-transfected (CCR4 negative) cells served as a negative control. The cells were cultivated further for 48 hours under regular conditions described above. The cells were washed twice with PBS, detached from the culture flasks by incubating with Accutase (PAA laboratories, Linz, Austria) for 3 minutes at room temperature. The cells were then washed 2 times with PBS (400×g, 5 min, 4° C.) and resuspended in PBS containing 0.2% BSA and 0.09% NaN₃. 1×10⁵ cells per well were aliquoted into V-shaped 96-well plates (Griner Bio-One, Frikenhausen, Germany). Cells were centrifuged (400×g, 5 min, 4° C.) and resuspended in 50 μl of 10 μg/ml 9E or 9E10J, in PBS containing 0.2% BSA and 0.09% NaN3. The cells were incubated further at 4° C. for 60 min. The samples were then washed twice by centrifugation and re-suspension in 100 μl FACS buffer. […]

[3] = target: T1, human CC chemokine receptor 4 (CCR4); experiment: flow cytometry competition on DT-40-CCR4+ cells; unlabelled IgG titrated, competitor 0.7 nM biotinylated IgG 9E
Procedure: as §1, §2

[4] = target: T1, human CC chemokine receptor 4 (CCR4); experiment: calculated from the IC50; DT-40-CCR4+ cells, competitor 0.7 nM biotinylated IgG 9E
Procedure: as §2

Row | Binder | IC50 [1] [pM] | Kd [2] [pM] | binding result (mouse CCR4) | IC50 [3] [pM] | Kd [4] [pM]
1 | B1 | 150 | 60 | no binding (tested: 10 µg/ml) | 60 | 50
2 | B2 | 3500 | 330 | no binding (tested: 10 µg/ml) | 440 | 390
